Reference: paper PMC5024437

Molecular target: T1, mSos1 (human (endogenous in A549)), Q07889
T1 chain: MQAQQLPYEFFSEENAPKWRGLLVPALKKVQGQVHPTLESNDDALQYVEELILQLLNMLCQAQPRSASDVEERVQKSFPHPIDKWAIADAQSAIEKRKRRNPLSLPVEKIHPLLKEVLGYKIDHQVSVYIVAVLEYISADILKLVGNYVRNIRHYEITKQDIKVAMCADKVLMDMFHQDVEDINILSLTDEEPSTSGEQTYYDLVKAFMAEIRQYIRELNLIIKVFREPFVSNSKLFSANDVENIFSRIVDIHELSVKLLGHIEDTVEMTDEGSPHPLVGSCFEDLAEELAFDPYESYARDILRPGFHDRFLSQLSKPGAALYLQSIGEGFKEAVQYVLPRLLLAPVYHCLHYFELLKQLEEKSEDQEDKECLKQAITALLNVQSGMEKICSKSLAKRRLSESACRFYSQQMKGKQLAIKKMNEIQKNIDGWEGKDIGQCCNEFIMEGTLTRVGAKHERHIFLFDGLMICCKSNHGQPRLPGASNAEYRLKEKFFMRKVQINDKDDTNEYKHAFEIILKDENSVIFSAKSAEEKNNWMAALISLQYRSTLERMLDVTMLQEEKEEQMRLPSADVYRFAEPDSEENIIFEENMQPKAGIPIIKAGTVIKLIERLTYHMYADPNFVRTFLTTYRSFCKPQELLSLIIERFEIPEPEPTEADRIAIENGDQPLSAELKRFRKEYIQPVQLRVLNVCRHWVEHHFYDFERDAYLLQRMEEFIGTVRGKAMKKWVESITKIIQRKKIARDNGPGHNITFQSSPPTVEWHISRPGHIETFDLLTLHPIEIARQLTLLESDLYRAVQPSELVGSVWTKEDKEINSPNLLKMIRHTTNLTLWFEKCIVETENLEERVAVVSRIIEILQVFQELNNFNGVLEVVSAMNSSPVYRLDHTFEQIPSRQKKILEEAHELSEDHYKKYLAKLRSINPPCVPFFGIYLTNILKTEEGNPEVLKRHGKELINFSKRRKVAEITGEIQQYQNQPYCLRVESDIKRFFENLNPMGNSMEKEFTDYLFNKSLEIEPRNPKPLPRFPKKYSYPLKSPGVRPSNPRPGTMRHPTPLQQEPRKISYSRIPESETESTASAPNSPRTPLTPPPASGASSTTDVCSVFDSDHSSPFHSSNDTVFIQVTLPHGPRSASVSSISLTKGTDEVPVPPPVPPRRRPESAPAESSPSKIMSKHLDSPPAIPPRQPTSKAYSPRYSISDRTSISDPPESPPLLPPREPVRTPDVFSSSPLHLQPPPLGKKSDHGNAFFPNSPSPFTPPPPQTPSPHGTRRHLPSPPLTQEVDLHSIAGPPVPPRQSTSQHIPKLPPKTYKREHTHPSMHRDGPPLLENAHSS
Test: co-IP; A549 and A549 + ITSN-1s (stable myc-ITSN-1s) cell lysates, 500 ug total protein, lysis buffer 50 mM Tris-HCl pH 8.0, 150 mM NaCl, 1 % NP-40; IP with 3 ug mSos1 or Cbl Ab and protein A/G, WB with Rac1 or Eps8 Ab; densitometry as percentage of control
Details: remark: other sources report otherwise

percent decrease of the co-precipitated complex in A549 + ITSN-1s cells against A549 cells: 54%
B1: Eps8, Q12929 1-822 (natural protein)
chain: MNGHISNHPSSFGMYPSQMNGYGSSPTFSQTDREHGSKTSAKALYEQRKNYARDSVSSVSDISQYRVEHLTTFVLDRKDAMITVDDGIRKLKLLDAKGKVWTQDMILQVDDRAVSLIDLESKNELENFPLNTIQHCQAVMHSCSYDSVLALVCKEPTQNKPDLHLFQCDEVKANLISEDIESAISDSKGGKQKRRPDALRMISNADPSIPPPPRAPAPAPPGTVTQVDVRSRVAAWSAWAADQGDFEKPRQYHEQEETPEMMAARIDRDVQILNHILDDIEFFITKLQKAAEAFSELSKRKKNKKGKRKGPGEGVLTLRAKPPPPDEFLDCFQKFKHGFNLLAKLKSHIQNPSAADLVHFLFTPLNMVVQATGGPELASSVLSPLLNKDTIDFLNYTVNGDERQLWMSLGGTWMKARAEWPKEQFIPPYVPRFRNGWEPPMLNFMGATMEQDLYQLAESVANVAEHQRKQEIKRLSTEHSSVSEYHPADGYAFSSNIYTRGSHLDQGEAAVAFKPTSNRHIDRNYEPLKTQPKKYAKSKYDFVARNNSELSVLKDDILEILDDRKQWWKVRNASGDSGFVPNNILDIVRPPESGLGRADPPYTHTIQKQRMEYGPRPADTPPAPSPPPTPAPVPVPLPPSTPAPVPVSKVPANITRQNSSSSDSGGSIVRDSQRHKQLPVDRRKSQMEEVQDELIHRLTIGRSAAQKKFHVPRQNVPVINITYDSTPEDVKTWLQSKGFNPVTVNSLGVLNGAQLFSLNKDELRTVCPEGARVYSQITVQKAALEDSSGSSELQEIMRRRQEKISAAASDSGVESFDEGSSH
